The data set can be described thus: yeast display, Sf9 membrane polyspecificity reagent, FACS + sequencing; frameworks hold sequencing errors. The method in brief:
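Nanobodies from a synthetic yeast display library (Saccharomyces cerevisiae BJ5465), induced 36–48 hours with galactose, were stained 1 hour at 4 °C with 10% biotinylated, detergent-solubilized Sf9 membrane reagent, enriched on streptavidin microbeads, then FACS-sorted. Anti-HA (expression) and streptavidin (reagent binding) fluorescence set low and high (top ~1%) gates. Polyreactivity labels come from the gate of origin. Genes were colony-PCR amplified, MiSeq 2 × 250 sequenced and filtered by CDR length.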
With “QDQLVESGGGLVQAGGILRLSSSASGFTFAYYAMGWYRQSTGKERQLVAAISSRGGSTYYADTVKGRFSISRDNAKNTVYLQMNILKPEDTAVYYCAAEFGLWPYEYGYCGQGTQVTVSS”, the “polyreactivity (PSR sort gate)” value is listed as “high polyreactivity”.

For the sequence “QDQLVESGGGLVQAGGRLRLSCAASGRIIRTYARGWDRQAPGKERELVAAITNGDSTNYADSVMGRFTMSRDNAKNTVYLQMNSLKPEDTAVYYCAVGAVVPGRRRRTYYYWGQGTQVTVSS”, the “polyreactivity (PSR sort gate)” value is listed as “high polyreactivity”. As for “QDQLVESGGGLVQAGGSHRLTCAASGFIFAYYAMGWYRQAPGKERELVAAISRSGARTYYADSVKGRFTISRDNAKNTVYLQMKSLKPEDTAVFYCSARIIVDVVGTKYYYWGQGTQVTVSS”, the “polyreactivity (PSR sort gate)” value is listed as “high polyreactivity”. Take “QDQLVESGGGLVQAGGSLRISCAASGRIFDYNAMGWYRQAPGKERELVAAITGGGNTTYADSVKGRFTISRDNAKNTVYLQMNSLKPEDTAVYYCAADVVSVYRLSYKPLGYYWGQGTQVTVSS”: the “polyreactivity (PSR sort gate)” value is “low polyreactivity”. With “QDQLVESGGGLVQAGGSLRLICAASGFTITTYAMGWYRQAPGKERELVASISYSGGRTYYADSVKGRFTISRDNAKNTVYLQLNSLKPEDTAVYFCAAVGVRNRAPSRGGYWGQGPQVTVSS”, the “polyreactivity (PSR sort gate)” value was “high polyreactivity”.

With “QDQLVESGGGLVQAGGSLRLICAASGITFLVNAMGWYRQAPGKERELVAGITSGDSTNYADSVKGRFTISRDNAKNTVYLQMNSLKPEDTAVYYCATVLYVGSGGGGILWDDDYWGQGTQVTVSS”, the “polyreactivity (PSR sort gate)” value was “low polyreactivity”. Take “QDQLVESGGGLVQAGGSLRLICAASGSIFTSNAMGWYRQAAGKERELVAAITSSGGSTYYADSVKGRFTISRDNAKNTVYLHMNSLKPEYTAVYYCAAAKFDLSFWLYYWGQGTQVTVSS”: the “polyreactivity (PSR sort gate)” value was “low polyreactivity”. To “QDQLVESGGGLVQAGGSLRLICAASGYIFVYNAMGWYRQTPWKERELVAAITDGGGSTYADSVKGRFTISRDNAKNSVYLQMNSLKPEDTAVYYCSARYSDTTWYVLYYYWGQGTQVTVSS” belongs “low polyreactivity”; to “QDQLVESGGGLVQAGGSLRLIFAASGSIFNGYAMGWSRQAPGKERELVADIRSGGSTYYADSVMGRFTISRDNAKNTVYLQMNSLKPEDTAVYYGAADTITDGYDYWGQGSQVTVSS”, “low polyreactivity”. To “QDQLVESGGGLVQAGGSLRLPCAASGYIFFFNAIGWYRQAPGKERELVAAITRRGVSTYYADSVKGRFTISRDNAKNTVYLQMNSLNPEDTAVYYCATDHNHLGYYYWGQGTQVTVSS” belongs “low polyreactivity”.

As for “QDQLVESGGGLVQAGGSLRLRCAASGFTFGCYAMGWYRQAPGKERELVASITSGGSTNYADSVKGRFTISRDNAKNTVYLQMNTLKPEDTAVYYCAKDLLGFDKVQYKIEDYWGQGTQVTVSS”, the “polyreactivity (PSR sort gate)” value is listed as “low polyreactivity”. Under “QDQLVESGGGLVQAGGSLRLSCAASGFIFSWYAMGWYRQPPGKERELVAGISIRGGRTYADSVKGRFTISRDNAKNTVYLQMNSLKPDDTAVYYCATRSYRPYHSLYDYWGQGTQVTVSS” stands “high polyreactivity”; under “QDQLVESGGGLVQAGGSLRLSCAASGFILKYYAMGWYRQAPGKEREFVAAITVSGGSTYYADSVKGRFTISRDNAKNTVYLQMNSLKPVDTAVYYCNADYPRGGAGLPDYWGQGTQVTVSS”, “low polyreactivity”; under “QDQLVESGGGLVQAGGSLRLSCAASGFNFMSKGMGWYRQAHGKETEFVAVITSSTGSTSYADSVKGRFTISRDNAKNTVYLQMNSLKPEDTGVFYCAADAYYYYAGGHYYWGQGTQVTVSS”, “low polyreactivity”.

Turning to “QDQLVESGGGLVQAGGSLRLSCAASGFTCRYYAMGWYRQAPGKERELVAAITGSGTRTYYADSVKGRFTISRDNAKNTVYLQMNSLKPEETAVYYCYPPRQPRWFDYWGQGTQVTVSS”, the “polyreactivity (PSR sort gate)” value is “high polyreactivity”. To “QDQLVESGGGLVQAGGSLRLSCAASGFTFDENAMGWYRQAPGINYSGASTYYADSVKGRFTISRDNAKNTVYLQMNSLKPEDTAVYYCAAEVVAQMNYWGQGTQVTVSS” belongs “low polyreactivity”; to “QDQLVESGGGLVQAGGSLRLSCAASGFTFGNNARGWYRQAPGKERQFVATISRRGGSTYYADSVKGRFTISRDNAKYTVYLQMNSLKPEDTAVYSCAVDRAGIKLAAGYDYWGQGTQVTVSS”, “high polyreactivity”; to “QDQLVESGGGLVQAGGSLRLSCAASGFTFYGYAMGWYRQAQGKERELVAAISSSGGRTYYADSVKGRFTISRDNAKNTVYLQMNSLKPEDTAVYYCAARARYIRGGGSRAYIGYYWGQGTQVTVSS”, “high polyreactivity”. To “QDQLVESGGGLVQAGGSLRLSCAASGGIFPDNAMGWSRKAPGKERELVATISWSGGSTYADSVKWRFTISRDNAKNTVYLQMNRLKPEDTAVYYCAAGSAYLWGQGTQVSVSS” belongs “low polyreactivity”. Under “QDQLVESGGGLVQAGGSLRLSCAASGGIFYQYAMGWYRQAPGKERELVATITSGGRTSYADSVKGRFTISRDNAKNTFYLQMNSLNPEDTAVYYCAATTGWYGARYGYWGQGTQVTVSS” stands “high polyreactivity”; under “QDQLVESGGGLVQAGGSLRLSCAASGIIFAKYAMGWSRQAPGNERELVAAINARGGSTYYADSVKGRFTISRDNAMNTVYLQMNSLKPEDTAVYYCAAERRSRFGNGVTYDYWGQGTQVTVSS”, “high polyreactivity”; under “QDQLVESGGGLVQAGGSLRLSCAASGIIFPQYTMGWYRQAPGKERELVAVITSGGSTYYADSVKGRFTISRDNAKNTVYLQMNSLKTEDTAVYYCAADAFYKFDYWGQGTQVTVSS”, “high polyreactivity”. In the case of “QDQLVESGGGLVQAGGSLRLSCAASGIILGGYVMGWYRQAPGKERELVAALSYSGGRTDYADSVKGRFTISRDKAKNTVYLQMNILNPEDTAVYYCATEYWRYHGITKGYTRYDYWGQGTQVTVSS”, the “polyreactivity (PSR sort gate)” value was “high polyreactivity”. Under “QDQLVESGGGLVQAGGSLRLSCAASGITFKFYAMGWYRQAPGKERELVAAISWSGGSTYYADSVKGRFTISRDNAKNTVYLQMNSLKPEDTAVYYCAAYTGWIYHTRYRRDYWGQGTQVTVSS” stands “high polyreactivity”. Under “QDQLVESGGGLVQAGGSLRLSCAASGITFNRYAMGWYRQAPGKERELVAAISRTGGSTYYADSVKARFTISRDNAKNTVYLQMNSLKPEDTAVYYCASRYTKGMYYWGQVTQVTVSS” stands “high polyreactivity”; under “QDQLVESGGGLVQAGGSLRLSCAASGITFQRYAMGGYRQAPGKERELVAVINFRGSNTFYADSVKGRFTISRDNAKNSVYLQMNSLIPEDTAVYYCAASYVIDIRGYGYWGQGTQVTVSS”, “low polyreactivity”; under “QDQLVESGGGLVQAGGSLRLSCAASGITFQYYAMGWYRQAPGKERELVAAITKRGGSTYYADSVKGRFTISRDNAKNTVYLQMKSLKPEDTAVYYCAADYGSWRNYIFLDDYWGQGTQVTVSS”, “high polyreactivity”. Under “QDQLVESGGGLVQAGGSLRLSCAASGITFRYYAMGWYRQAPGKERELVAAITGGGGSTYADSVKGRFTISRDNAKNTVYLQMNSLKPEDTAVYYCNATPRARSLPLRYQHDYWLQGTQVTVSS” stands “low polyreactivity”; under “QDQLVESGGGLVQAGGSLRLSCAASGITFYRNAMGWYRQAPGKERELVAAISRRGGITRYADSVKGRFTISRDNAKNTVYLQMNSLKPEDTAVYYCAKAIGSTALRRATEDYWGQGTQVTVSS”, “high polyreactivity”; under “QDQLVESGGGLVQAGGSLRLSCAASGITSNPYDMGWYRQAAGKERELVAVITSGGSTSYADSVKGRFTISRDNAKNTVYLQLISLKREDTAVYYCNSVYAGWRGGNYWGQGTQVTVSS”, “low polyreactivity”. As to “QDQLVESGGGLVQAGGSLRLSCAASGLIFKYNAMGWSRQAPGKERELVADINRSGGSTYYADSVKGRFTISRDNSKNTVSLQMNSLKPEDSAVYDCAAERVSLYWVIFGYWGQGTQVTVSS”, the “polyreactivity (PSR sort gate)” value is on record as “low polyreactivity”. To “QDQLVESGGGLVQAGGSLRLSCAASGLIFYDNLGWYRQAPGKERELVAAISSSGGSTSYADSVKGRFTISRDNAKNTVYLQMNSLKPEDTAVYYCAADSYPAYLGFVGFDYWGQGTQVTVSS” belongs “low polyreactivity”; to “QDQLVESGGGLVQAGGSLRLSCAASGLNLGIYAMGWYRQAPGKERELVAAISRGGGSTYYADSVKGRFTISRDNAKNTVYLQMNSLKPEDTAVFYCNAVRYRYGVFPYYYWGQGTQVTVSS”, “high polyreactivity”; to “QDQLVESGGGLVQAGGSLRLSCAASGLTFYSNTMGWYRQAPGKERELVAGISWGGDTTYYADSVKGRFTISRDNAKNTVYLQMNSLKPEDTAVYYCAADRSYWRHRYSYDYWGQGTQVTVSS”, “low polyreactivity”. As to “QDQLVESGGGLVQAGGSLRLSCAASGNIFDYYAMGWYRQAPGKERELVATITWSSGRTYYADSVKGRFTISRDNAKNTVYLQMNSLKTEDTAVYYCNTRSYTRYDYWGQGTQVTVSS”, the “polyreactivity (PSR sort gate)” value is “low polyreactivity”. As to “QDQLVESGGGLVQAGGSLRLSCAASGRIFKFNAMGWYRPAPGKERELVAAITSGGSTNYADSVKGRFTLSRDNEKNTVYLQMNSLKREDTAVYYCAKSTPRFYPRGFYYWGHGTQVTVSS”, the “polyreactivity (PSR sort gate)” value is given as “low polyreactivity”. To “QDQLVESGGGLVQAGGSLRLSCAASGRIFRYYAMGWYRQAPGKERELVAGMSGSGGSTYYADSVKGRFTISRDNAKNTVYLQMNSLKPEDTAVYYCAADYVRVGSLHGVYTYKKYDYWGQGTQVTVSS” belongs “high polyreactivity”; to “QDQLVESGGGLVQAGGSLRLSCAASGRLFATYAMGWNRQAPGKERELVAAISDSGGRTYYADSVTGRFTSSRDNAKNTVYLQMNSLKPEDTAVYYCAAKNGDRYARGYWGQGTQVTVSS”, “high polyreactivity”; to “QDQLVESGGGLVQAGGSLRLSCAASGRNFYRNAMGWYRPAPGKEWEVVAAITQSSGSTYYADSVKGRCTISRDNAKHTVYLQMNSLKPEDTAVYYCAALVRKYGVDYWGQGTQVTVSS”, “high polyreactivity”. Turning to “QDQLVESGGGLVQAGGSLRLSCAASGRTFDDYAMGWSRPAPGKERELVAAINSGGNTYYADSVKGRFTISRDNAKNTVYLQMNSLKREDTADYYCAAYYRDKLSGYNYWRQGTQVTVSS”, the “polyreactivity (PSR sort gate)” value is on record as “high polyreactivity”. For the sequence “QDQLVESGGGLVQAGGSLRLSCAASGRTFGRYAMGWYRQAPGKERELVASISYSTDSTYYADSVKGRFTISRDNAKNTVYLQMNSLKPEDTAVYYCATDSVNVGSYVGDKHDYWGQGTQVTVSS”, the “polyreactivity (PSR sort gate)” value is on record as “low polyreactivity”.

For the origin of these results see the nanobody polyreactivity screen of Harvey et al. (2022).
